{"source": "patent US20220098307A1", "about": "(WUHAN YZY BIOPHARMA, published 2022)", "key": {"human CEA": {"molecular_target": "T1, human CEA (human, UniProt P06731 35-685)", "T1 sequence": "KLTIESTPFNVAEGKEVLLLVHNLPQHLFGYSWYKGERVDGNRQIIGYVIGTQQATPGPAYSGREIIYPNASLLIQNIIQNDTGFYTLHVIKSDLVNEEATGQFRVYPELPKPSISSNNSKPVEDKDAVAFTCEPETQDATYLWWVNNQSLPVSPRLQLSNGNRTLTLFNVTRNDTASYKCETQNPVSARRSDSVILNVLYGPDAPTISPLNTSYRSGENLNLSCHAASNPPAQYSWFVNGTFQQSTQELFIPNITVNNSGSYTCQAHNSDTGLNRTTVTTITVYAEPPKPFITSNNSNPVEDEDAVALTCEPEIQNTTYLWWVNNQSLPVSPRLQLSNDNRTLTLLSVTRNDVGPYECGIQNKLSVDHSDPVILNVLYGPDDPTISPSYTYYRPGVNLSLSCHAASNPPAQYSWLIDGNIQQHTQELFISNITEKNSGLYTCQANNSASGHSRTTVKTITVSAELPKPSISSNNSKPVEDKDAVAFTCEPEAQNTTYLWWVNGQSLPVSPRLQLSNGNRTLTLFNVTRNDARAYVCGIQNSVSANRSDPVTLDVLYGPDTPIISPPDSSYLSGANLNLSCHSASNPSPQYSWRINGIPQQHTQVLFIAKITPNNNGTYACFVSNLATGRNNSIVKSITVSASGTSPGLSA", "experiment": "flow cytometry, human tumor cells (table of the CEA series)", "text": "1) Cell preparation: T cells isolated from CD3-positive human whole blood were used for a CD3 end affinity detection of multifunctional antibody molecule; positive tumor cells of corresponding antigen were used for detecting affinity of tumor antigen; for example, CD38-positive MM. 1S cells (purchased from the Cell Resource Center of Shanghai Institutes for Biological Sciences, Chinese Academy of Sciences) or RPMI 8226 cells (purchased from the Cell Resource Center of Shanghai Institutes for Biological Sciences, Chinese Academy of Sciences) were used for CD38 antigen detection, and PD-L1 positive H358 cells (purchased from the Cell Resource Center of Shanghai Institutes for Biological Sciences, Chinese Academy of Sciences) were used for PD-L1 antigen detection, and so on. The cells were resuspended with 1% FBS-PBS, adjusted to a density of 4×10⁶/ml, and 50 μl of cells were taken from each well, and then plated at 2×10⁵ per well. Cell plating was operated on ice\n2) Addition of the antibody: according to the experimental design, the antibody was diluted gradually, and dilution of antibody was operated on ice. For example, the initial concentration of antibody for dilution was 3000 nM, and the antibody was diluted by 3 times with 11 concentration gradients. The diluted antibody was added to a cell well at 50 μl per well, mixed well, and shaked and incubated at 4° C. 1100 rpm/min for 2 h; after washing, the cells were resuspend in 1% FBS-PBS, and a diluted secondary antibody PE anti-human IgG FC (Biolegend, 409304) was added with a final concentration of 8 ug/ml and a volume of 50 μl/well. At the same time, a well only added with cells and secondary antibody was set as a control, the components were mixed well, and incubated under shaking at 1100 rpm/min at 4° C. for 1 h;\n5) Data analysis: the data was analyzed by a flow analysis software FlowJo 7.6 thereby obtaining an average fluorescence intensity of the specific antibody concentration, plotted by a Graphpad Prism 5 with the antibody concentration (nM) as an abscissa and the average fluorescence intensity as an ordinate; the EC50 value was calculated by the method of One site—Specific binding, and the EC50 value indicated the cell affinity of the antibody to the corresponding target antigen."}, "Human CD3ε": {"molecular_target": "T2, Human CD3ε (human, UniProt P07766 23-126)", "T2 construct": "CD3 on T cells isolated from human whole blood", "experiment": "flow cytometry, human T cells", "in_short": "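Cell binding by flow cytometry: antigen-positive tumor cells (e.g. MM.1S or RPMI 8226 for CD38) or CD3+ T cells, 2×10⁵/well, with antibody 3-fold diluted over 11 points from 3000 nM, 2 h at 4° C with shaking.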"}}}
{"binder": "M3IC-DG2D (bispecific antibody, structure 3 isotype control; CH2 DG2DCH2) chain 1: EVKLDETGGGLVQPGRPMKLSCVASGFTFSDYWMNWVRQSPEKGLEWVAQIRNKPYNYETYYSDSVKGRFTISRDDSKSSVYLQMNNLRVEDMGIYYCTGSYYGMDYWGQGTSVTVSSASTKGPSVFPLAPSSKSTSGGTAALGCLVKDYFPEPVTVSWNSGALTSGVHTFPAVLQSSGLYSLSSVVTVPSSSLGTQTYICNVNHKPSNTKVDKKVEPKSCGGGGSGGGGSQVQLVESGGGVVQPGRSLRLSCAASGFTFSTYAMNWVRQAPGKGLEWVARIRSKYNNYATYYADSVKDRFTISRDDSKNTLYLQMNSLRAEDTAVYYCARHGNFGNSYVSWFAYWGQGTLVTVSSASVAAPSVFIFPPSDEQLKSGTASVVCLLNNFYPREAKVQWKVDNALQSGNSQESVTEQDSKDSTYSLSSTLTLSKADYEKHKVYACEVTHQGLSSPVTKSFNRGECDKTHTCPPCPAPPVAGPSVFLFPPKPKDTLMISRTPEVTCVVVAVSHEAPEVQFNWYVDGVEVHNAKTKPREEQFNSTFRVVSVLTVVHQDWLNGKEYKCKVSNKGLPAPIEKTISKTKGQPREPQVYTLPPCRDELTKNQVSLWCLVKGFYPSDIAVEWESNGQPENNYKTTPPVLDSDGSFFLYSKLTVDKSRWQQGNVFSCSVMHEALHNHYTQKSLSLSPGK chain 2: QTVVTQEPSLTVSPGGTVTLTCRSSTGAVTTSNYANWVQQKPGQAPRGLIGGTNKRAPGVPARFSGSLLGGKAALTLSGVQPEDEAEYYCALWYSNLWVFGGGTKVEIKSSASTKGPSVFPLAPSSKSTSGGTAALGCLVKDYFPEPVTVSWNSGALTSGVHTFPAVLQSSGLYSLSSVVTVPSSSLGTQTYICNVNHKPSNTKVDKKVEPKSC heavy: EVKLDETGGGLVQPGRPMKLSCVASGFTFSDYWMNWVRQSPEKGLEWVAQIRNKPYNYETYYSDSVKGRFTISRDDSKSSVYLQMNNLRVEDMGIYYCTGSYYGMDYWGQGTSVTVSSASTKGPSVFPLAPSSKSTSGGTAALGCLVKDYFPEPVTVSWNSGALTSGVHTFPAVLQSSGLYSLSSVVTVPSSSLGTQTYICNVNHKPSNTKVDKKVEPKSCDKTHTCPPCPAPPVAGPSVFLFPPKPKDTLMISRTPEVTCVVVAVSHEAPEVQFNWYVDGVEVHNAKTKPREEQFNSTFRVVSVLTVVHQDWLNGKEYKCKVSNKGLPAPIEKTISKTKGQPREPQVCTLPPSRDELTKNQVSLSCAVKGFYPSDIAVEWESNGQPENNYKTTPPVLDSDGSFFLVSKLTVDKSRWQQGNVFSCSVMHEALHNRFTQKSLSLSPGK light: DVVMTQTPLSLPVSLGDQASISCRSSQSLVHSNGNTYLRWYLQKPGQSPKVLIYKVSNRFSGVPDRFSGSGSGTDFTLKISRVEAEDLGVYFCSQSTHVPWTFGGGTKLEIKRTVAAPSVFIFPPSDEQLKSGTASVVCLLNNFYPREAKVQWKVDNALQSGNSQESVTEQDSKDSTYSLSSTLTLSKADYEKHKVYACEVTHQGLSSPVTKSFNRGEC", "values": [{"measurement": "binding result", "setting": "human CEA", "result": "no binding"}, {"measurement": "EC50", "setting": "Human CD3ε", "result": 638, "unit": "nM"}]}
